Tests used:
[1] = test system: p63^Krsl, p35, and p33^QIK; experiment: Caspase-3 treatment of Ab-KQ immune complexes, in-gel kinase readout; type: biochemical, mouse; settings: 0.2 μg Caspase-3, 37° C., 30 min
Method: Both p63^Krsl and p33^QIK in 10 μg of cytosolic lysates (S20) were immunoprecipitated by Ab-KQ (lanes 2 to 4 and 6 to 8), followed by reatment with 0.2 μg Caspase-3 (C)(lanes 3, 4, 7 and 8) in the presence of 5 μM caspase inhibitor Z-D-CH2-DCB (C+I)(lanes 4 and 8) at 37° C. for 30 min. The kinase activities of p63^Krsl, p35, and p33^QIK in 5 μg of S20 (lanes 1 and 5) and in the immune complexes were determined by the in-gel kinase assay using MBP as a substrate. Bars indicate p63^Krsl p35, and p33^QIK.
(§1) MBP (BRL/GIBCO, Grand Island, N.Y.) was used as a substrate in the assay and the in-gel kinase assay was performed as previously described (Wang et al., 1992). Briefly, 10% SDS-polyacrylamide gel (SDS-PAG) was copolymerized with 0.4 mg/ml MBP. Cellular proteins were resolved in the MBP-immobilized SDS-PAG, followed by rinsing the gel with 20% isopropanol in buffer B (100 mM Tris, pH 8, 5 mM β-mercaptoethanol). The gel was denatured in buffer B supplemented with 6 M guanidine-HCl and renatured with buffer B supplemented with 0.04% Tween 40 (Kameshita and Fujisawa, 1989). Kinase reaction was carried out by incubating the gel with kinase buffer (20 Mm Tris, pH 7.2, 10 mM MgCl2, 15 mM β-glycerolphosphate) supplemented with 50 μM γATP and 50 μCi of [γ-^32P]ATP at 22° C. for 30 min. […] Protein kinases which phosphorylated MBP in the gel were detected by autoradiography of the [γ^32P]-labeled MBP. […]

[2] = test system: p33^QIK; experiment: Phosphatase treatment of immunoprecipitated p33^QIK, in-gel kinase readout; type: biochemical, mouse; settings: immune complexes from quiescent or osmotic-stressed quiescent cells; 0.1 unit PP1, 30° C., 30 min
Method: NIH3T3 cultures were synchronized in quiescent state by serum starvation for 48 hr (G0), followed by treatment with 300 mM NaCl (G0/NaCl) for 2 hr. p33^QIK in 10 μg of cytosolic lysates (S20) were immunoprecipitated by Ab-KQ (IP), followed by incubation of the immune complexes with 0.1 unit of PP1 (Ps) (lanes 2, 3, 5 and 6) in phosphatase buffer (50 mM Tris-HCl, pH 7.0, 0.1 mM EDTA, 5 mM dithiothreitol, 0.01% Brij 35, 2 mM MnCl2) in the presence of 10 mM Na3VO4 and 50 mM NaF (Ps+I)(lanes 3 and 6) at 30° C. for 30 min. The kinase activity of p33^QIK in the immune complexes was determined by the in-gel kinase assay using MBP as a substrate. Bar indicates p33^QIK.
as §1, with “1989).” for “1989). Kinase reaction was carried out by incubating the gel with kinase buffer (20 Mm Tris, pH 7.2, 10 mM MgCl2, 15 mM β-glycerolphosphate) supplemented with 50 μM γATP and 50 μCi of [γ-^32P]ATP at 22° C. for 30 min.”

B1: caspase-3: Recombinant human Caspase-3 purchased from Alexis Biochemicals (protein)
chain: SGISLDNSYKMDYPEMGLCIIINNKNFHKSTGMTSRSGTDVDAANLRETFRNLKYEVRNKNDLTREEIVELMRDVSKEDHSKRSSFVCVLLSHGEEGIIFGTNGPVDLKKITNFFRGDRCRSLTGKPKLFIIQACRGTELDCGIETDSGVDDDMACHKIPVEADFLYAYSTAPGYYSWRNSKDGSWFIQSLCAMLKQYADKLEFMHILTRVNRKVATEFESFSFDATFHAKKQIPCIVSMLTKELYFYH
kinase activities of p63^Krsl, p35 and p33^QIK in immune complexes ([1]; immune complexes from STSP-treated cells): both the kinase activities of p63^Krsl and p35 decreased in correlation with an increased p33^QIK activity | kinase activity of p33^QIK in immune complexes ([1]; p33^QIK isolated from osmotic-stressed quiescent or growing cultures): no change was detected in the kinase activity of p33^QIK

B2: Lambda phosphatase: Lambda protein phosphatase purchased from NE BioLabs (protein)
chain: MRYYEKIDGSKYRNIWVVGDLHGCYTNLMNKLDTIGFDNKKDLLISVGDLVDRGAENVECLELITFPWFRAVRGNHEQMMIDGLSERGNVNHWLLNGGGWFFNLDYDKEILAKALAHKADELPLIIELVSKDKKYVICHADYPFDEYEFGKPVDHQQVIWNRERISNSQNGIVKEIKGADTFIFGHTPAVKPLKFANQMYIDTGAVFCGNLTLIQVQGEGA
kinase activity of activated p33^QIK after phosphatase treatment [2]: A similar result was obtained
